The values that follow come from paper PMC11767649.

In assay [1] the target is T1, recombinant human RKIP (rhRKIP) wild type, histidine-tagged (human), P30086. Briefly: non-reducing SDS-PAGE; purified rhRKIP in sample loading buffer without β-mercaptoethanol or boiling; Coomassie Brilliant Blue staining or anti-His immunoblot. The conditions noted are these: remark: other sources report otherwise.
In assay [2] the target is T1, recombinant human RKIP (rhRKIP) wild …. Nature of the assay: LC Q-TOF mass spectrometry; purified rhRKIP WT and mutant proteins in buffer at pH 7.4; peaks around 22 kDa (monomer) and 44 kDa (dimer). To be noted: remark: other sources report otherwise.

B1: recombinant human RKIP (rhRKIP) wild type, histidine-tagged, P30086 1-187 (natural protein)
chain: MPVDLSKWSGPLSLQEVDEQPQHPLHVTYAGAAVDELGKVLTPTQVKNRPTSISWDGLDSGKLYTLVLTDPDAPSRKDPKYREWHHFLVVNMKGNDISSGTVLSDYVGSGPPKGTGLHRYVWLVYEQDRPLKCDEPILSNRSGDHRGKFKVASFRKKYELRAPVAGTCYQAEWDDYVPKLYEQLSGK
Consider B1, for which the stoichiometry N in assay [1] and in assay [2] was 2 throughout.
